Target: the molecule itself
Assay: cross-linking; Mock-7721, GnT-V-7721, Mock-HT29 and GnT-V-HT29 cells grown to confluence, cell-surface proteins cross-linked with 3 mM BS3 for 2 hours at 4°C (on ice), stopped with 20 mM Tris-Cl, SDS lysis, immunoblot for PTPRT; dimer and monomer bands quantified with Image J

B1: receptor protein tyrosine phosphatase rho (PTPRT) (receptor, human (endogenous in SMMC-7721 and HT29), UniProt O14522 26-1441, looked up)
chain: QSAAGGCSFDEHYSNCGYSVALGTNGFTWEQINTWEKPMLDQAVPTGSFMMVNSSGRASGQKAHLLLPTLKENDTHCIDFHYYFSSRDRSSPGALNVYVKVNGGPQGNPVWNVSGVVTEGWVKAELAISTFWPHFYQVIFESVSLKGHPGYIAVDEVRVLAHPCRKAPHFLRLQNVEVNVGQNATFQCIAGGKWSQHDKLWLQQWNGRDTALMVTRVVNHRRFSATVSVADTAQRSVSKYRCVIRSDGGSGVSNYAELIVKEPPTPIAPPELLAVGATYLWIKPNANSIIGDGPIILKEVEYRTTTGTWAETHIVDSPNYKLWHLDPDVEYEIRVLLTRPGEGGTGPPGPPLTTRTKCADPVHGPQNVEIVDIRARQLTLQWEPFGYAVTRCHSYNLTVQYQYVFNQQQYEAEEVIQTSSHYTLRGLRPFMTIRLRLLLSNPEGRMESEELVVQTEEDVPGAVPLESIQGGPFEEKIYIQWKPPNETNGVITLYEINYKAVGSLDPSADLSSQRGKVFKLRNETHHLFVGLYPGTTYSFTIKASTAKGFGPPVTTRIATKISAPSMPEYDTDTPLNETDTTITVMLKPAQSRGAPVSVYQLVVKEERLQKSRRAADIIECFSVPVSYRNASSLDSLHYFAAELKPANLPVTQPFTVGDNKTYNGYWNPPLSPLKSYSIYFQALSKANGETKINCVRLATKGASTQNSNTVEPEKQVDNTVKMAGVIAGLLMFIIILLGVMLTIKRRRNAYSYSYYLKLAKKQKETQSGAQREMGPVASADKPTTKLSASRNDEGFSSSSQDVNGFTDGSRGELSQPTLTIQTHPYRTCDPVEMSYPRDQFQPAIRVADLLQHITQMKRGQGYGFKEEYEALPEGQTASWDTAKEDENRNKNRYGNIISYDHSRVRLLVLDGDPHSDYINANYIDGYHRPRHYIATQGPMQETVKDFWRMIWQENSASIVMVTNLVEVGRVKCVRYWPDDTEVYGDIKVTLIETEPLAEYVIRTFTVQKKGYHEIRELRLFHFTSWPDHGVPCYATGLLGFVRQVKFLNPPEAGPIVVHCSAGAGRTGCFIAIDTMLDMAENEGVVDIFNCVRELRAQRVNLVQTEEQYVFVHDAILEACLCGNTAIPVCEFRSLYYNISRLDPQTNSSQIKDEFQTLNIVTPRVRPEDCSIGLLPRNHDKNRSMDVLPLDRCLPFLISVDGESSNYINAALMDSHKQPAAFVVTQHPLPNTVADFWRLVFDYNCSSVVMLNEMDTAQFCMQYWPEKTSGCYGPIQVEFVSADIDEDIIHRIFRICNMARPQDGYRIVQHLQYIGWPAYRDTPPSKRSLLKVVRRLEKWQEQYDGREGRTVVHCLNGGGRSGTFCAICSVCEMIQQQNIIDVFHIVKTLRNNKSNMVETLEQYKFVYEVALEYLSSF
modifications: N-glycans with β1,6 GlcNAc branches (tri- and tetra-antennary), more of them in GnT-V overexpressing cells; sites not mapped
notes: receptor protein tyrosine phosphatase rho (PTPRT), type IIB receptor-like PTP, endogenous in human SMMC-7721 and HT29 cells; One molecule for PTPRT of Mock and of GnT-V overexpressing cells: the two differ only in the amount of β1,6 GlcNAc branches on unmapped N-glycan sites; also called PTPRT (ρ); source: endogenous, SMMC-7721 and HT29 cells stably infected with pCDH-puro (Mock) or …
  intensity ratio of dimer to monomer, GnT-V cells against Mock cells: ~2 fold
  stoichiometry N: 2

From paper PMC4028250, “β1,6 GlcNAc Branches-Modified PTPRT Attenuates Its Activity and Promotes Cell Migration by STAT3 Pathway” (PLoS ONE, 2014)
